This passage reports percent dimer and stoichiometry N results from PMC5330279.

Assay [1] has as its target hCRBPII Q108K:K40L:Y60W (human). Briefly: SEC. On the technique in general: In gel filtration, larger molecules generally elute earlier.

The substance hCRBPII E72A (natural protein) showed a percent dimer with hCRBPII E72A (human) of 50%.

The stoichiometry N is a count of units in the complex or per binding partner. In assay [1], “hCRBPII Q108K:K40L:Y60W (natural protein)” showed a stoichiometry N of 2.
